This passage reports Response (arbitrary units) results from patent publication US20120101255A1.

This test addresses Recombinant Cx43CT (carboxyl terminal domain of rat connexin43, residues 255-382, preceded by GPLG) (rat) (UniProt P08050). The test can be described thus: SPR on the carboxyl terminal domain of Cx43, peptide at 1.0 mM.

Sequence of Recombinant Cx43CT (carboxyl terminal domain of rat connexin43, residues 255-382, preceded by GPLG) (rat) (P08050 other isoform, or with tags, fused parts or gaps limits assumed): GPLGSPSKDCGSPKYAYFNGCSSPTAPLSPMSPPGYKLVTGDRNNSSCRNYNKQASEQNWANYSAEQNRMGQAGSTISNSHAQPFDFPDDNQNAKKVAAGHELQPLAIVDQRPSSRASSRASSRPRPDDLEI

Take “AcRNP-NH2 (Identification No. 2502) (peptide)”: the Response (arbitrary units) was 4.6.
